Measurements published in doi:10.64898/2025.12.19.695307 (bioRxiv, 2025).

How the values were obtained:
Assay in all cases: BLI
[1] = target: SARS-CoV-2 wild-type RBD (SARS-CoV-2, UniProt P0DTC2)
[2] = target: Bat-RaTG13 RBD (Bat coronavirus RaTG13, UniProt A0ABF7PLN6)
[3] = target: Bat-RsSHC014 RBD (Bat SARS-like coronavirus RsSHC014, UniProt U5WLK5)
[4] = target: Bat-WIV1 RBD (Bat SARS-like coronavirus WIV1, UniProt U5WI05)
[5] = target: SARS-CoV-1 RBD (SARS-CoV-1, strain not named, UniProt P59594)
[6] = target: GX2013 RBD (SARSr-CoV BtRs-BetaCoV/GX2013)
[7] = target: HeB2013 RBD (SARSr-CoV BtRf-BetaCoV/HeB2013)

B1: ZL525 (antibody, V domains shown)
V domain 1: QVQLVQSGAEVKKPGSSMKVSCQASGGTFSSHPISWIRQAPGQGLEWMGRIIPIAGMTDYGQKFQGRITITADTSTSTSYVELRGLRSQDTAFYYCAKDVGYSDYGSAYYFHTWGQGTLITVSS
V domain 2: QSVLTQPPSVSGAPGQRVTISCTGSNSNIGAGYDVHWYQQLPGTAPKLLIYRNNKRPSGVPDRFSGSKSDTSASLAITGLQAEDEAHYYCQSFDSSLGGSLFGGGTKLAVL
B1: binds [1]; binds [2]; binds [3]. B1: binds [4]; binds [5]; binds [6]. B1: binds [7].

B2: BD56-104-R1-32 HCDR3 (antibody, V domains shown)
VH: QVQLVQSGAEVKTPGSSVKVSCKASGGTFGSHSITWVRQAPGQGLEWMGRVIPILGIPDFAESFQGRVAITADRSTSTAHMELSRLRSEDTAVYYCARENGYSGYGAAANFDLWGQGTLVTVSS
VL: QSVLTQPPSVSGAPGQRVTISCTGSNSNIGAGYDVHWYRQLPGTAPKLLIYVNNNRPSGVPDRFSGSRSGASASLAITGLQAEDEAEYYCQSYDSSLSGSIFGGGTKLTVL
B2: binds [1].

B3: BD56-104 (antibody, V domains shown)
VH: QVQLVQSGAEVKTPGSSVKVSCKASGGTFGSHSITWVRQAPGQGLEWMGRVIPILGIPDFAESFQGRVAITADRSTSTAHMELSRLRSEDTAVYYCARDVGYSGSGSSNYFDSWGQGTLVTVSS
VL: QSVLTQPPSVSGAPGQRVTISCTGSNSNIGAGYDVHWYRQLPGTAPKLLIYVNNNRPSGVPDRFSGSRSGASASLAITGLQAEDEAEYYCQSYDSSLSGSIFGGGTKLTVL
B3: binds [1]; binds [2]; binds [3]. B3: no binding (tested: 200 nM RBD) [4]; binds [6]; binds [7].

B4: C092 (antibody, V domains shown)
VH: QVQLVQSGAEVKKPGSSVKVSCKASGGSFTNHFISWVRQAPGQGLEWMGRIIPILGTANYAQNFQGRVMMTADKSTSTAYMELSSLRSEDTAVYYCARDSGYSGYGSTYYMDVWGKGTTVTVSS
VL: QSVLTQPPSVSGAPGQRVTISCTGSNSNIGAGYDVHWYQQLPGAAPKLLIYGNNNRPSGVPDRFSGSKSDTSASLAITGLQVEDEADYYCQSYDSSLSDSVFGSGTKVTVL
B4: binds [1]; binds [2]; binds [3]. B4: binds [4]; binds [6]; binds [7].

B5: BD56-597 (antibody, V domains shown)
VH: QVQLVQSGAEVKKPGSSVKVSCKASGGTFSTYPISWVRQAPGQGVEWMGAIIPILGTTDYAQIFQGRVTITADKSTSTAYMELSSLRPEDTAVYYCARERGYSGYGAAYYFDSWGQGTLVTVSS
VL: QSVLTQPPSVSGAPGQRVTISCTGSDSNIGAGYDVHWYQQLPGTAPKLLIYVNINRPSGVPDRFSGSKSATSASLAITGLQAEDEADYYCQSYDSSLSGVVFGGGTKLTVL
B5: binds [1]; binds [2]; binds [3]. B5: binds [4]; binds [6]; binds [7].

B6: R1-32 (antibody, V domains shown)
VH: EVQLVESGAEVKKPGSSVKVSCKASGGTFSSYAISWVRQAPGQGLEWMGGIIPILGIANYAQKFQGRVTITADKSTSTAYMELSSLRSEDTAVYYCARENGYSGYGAAANFDLWGRGTLVTVSS
VL: QSVLTQPPSVSGAPGQRVTISCTGSSSNIGAGYDVHWYQQLPGTAPKLLIYGNSNRPSGVPDRFSGSKSGTSASLAITGLQAEDEADYYCQSYDSSLSGSVFGGGTKLTVL
B6: binds [1]; binds [2]; binds [3].

B7: C807 (antibody, V domains shown)
VH: QVQLVQSGAEAKKPGSSVKVSCKASGGTFKSYIINWVRQAPGQGLEWMGEIIPIFGTANYAQKFQGRVTSTADESTSTAYMELSSLKSEDTAVYYCARGRGYSGYGASYYFDYWGQGTLVTVSS
VL: QSVLTQPPSVSGAPGQRVTISCTGSNSNIGAGYDVHWYQQLPGTAPKLLIYANSNRPSGVPDRFSGSKSGTSASLAITGLQAEDEADYYCQSYDSGLSGSVFGGGTKLTVL
B7: binds [1]; binds [2]; binds [3]. B7: binds [4]; binds [6]; binds [7].

B8: R1-32-AAM (R1-32-artificial-affinity-matured) (antibody, V domains shown)
VH: EVQLVESGAEVKKPGSSVKVSCKASGGTFSSYFISWVRQAPGQGLEWMGGIIPILGIADYAEKFQGRVTITADKSTSTAYMELSSLRSEDTAVYYCARENGYSGYGAAYNFDLWGRGTLVTVSS
VL: QSVLTQPPSVSGAPGQRVTISCTGSDSNIGAGYDVHWYQQLPGTAPKLLIYGNSNRPSGVPDRFSGSKSDTSASLAITGLQAEDEADYYCQSYDSSLSDSVFGGGTKLTVL
B8: binds [1].
